Laboratory results: article PMC6539845
Where two headings read alike, the source gives them in different places. Values belong to the substance of their own block, whether it stands above or below them.

Experiments:
[1] = target: single-ring α7 mutant α7^SR (S96D, S100D, F102R, Y104R) (human); test: native MS; α4 or α6 (4 μM monomers) mixed with α7^SR (4 μM heptamer), 20 °C, 1 h; α2 incubated with α7^SR before buffer exchange; 150 mM ammonium acetate
[2] = target: monomeric α7 mutant α7* (N-terminal residues 1-22 replaced with a hexahistidine-containing segment) (human) (UniProt P25788); test: SEC; α1–α6 (20 μM monomers) mixed with an equimolar amount of α7*, 20 °C, 1 h; SDS-PAGE (CBB) of the purified complexes
[3] = target: human proteasome α7 subunit, wild type (human) (UniProt P25788); test: native MS; α4 or α6 (4 μM monomers) mixed with α7 (2 μM tetradecamer), 20 °C, 1 h, 150 mM ammonium acetate
[4] = target: human proteasome α6 subunit, short isoform (human) (UniProt P25786); test: native MS; single proteins, 5–20 μM monomers, 150 mM ammonium acetate (pH 6.8–8.0), nanoflow electrospray
[5] = target: human proteasome α7 subunit, wild type (human) (UniProt P25788); test: SEC; wild-type α7 in the presence of α1–α6 or α7* (20 μM monomers); loss of the tetradecamer peak
[6] = target: human proteasome α7 subunit, wild type (human) (UniProt P25788); test: native MS; α4 or α6 (4 μM monomers) mixed with α7 (2 μM tetradecamer), 20 °C, 1 h, 150 mM ammonium acetate; remark: listed apart in the source
[7] = target: human proteasome α7 subunit, wild type (human) (UniProt P25788); test: native MS; single proteins, 5–20 μM monomers, 150 mM ammonium acetate (pH 6.8–8.0), nanoflow electrospray
[8] = target: single-ring α7 mutant α7^SR (S96D, S100D, F102R, Y104R) (human); test: atomic force microscopy; α7^SR alone (Figure S2); height of the ring
[9] = target: single-ring α7 mutant α7^SR (S96D, S100D, F102R, Y104R) (human); test: native MS; single proteins, 5–20 μM monomers, 150 mM ammonium acetate (pH 6.8–8.0), nanoflow electrospray
[10] = target: single-ring α7 mutant α7^SR (S96D, S100D, F102R, Y104R) (human); test: as above; remark: listed apart in the source

human proteasome α7 subunit, wild type (human), sequence (P25788 whole entry, canonical isoform): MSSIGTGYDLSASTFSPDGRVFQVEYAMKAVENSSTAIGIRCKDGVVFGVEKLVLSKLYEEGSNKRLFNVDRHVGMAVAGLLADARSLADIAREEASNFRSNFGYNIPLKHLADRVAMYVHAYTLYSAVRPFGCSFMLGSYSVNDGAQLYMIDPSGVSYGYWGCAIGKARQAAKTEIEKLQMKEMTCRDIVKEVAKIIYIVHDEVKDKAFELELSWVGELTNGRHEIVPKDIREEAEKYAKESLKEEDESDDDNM
human proteasome α6 subunit, short isoform, sequence (P25786 whole entry, canonical isoform): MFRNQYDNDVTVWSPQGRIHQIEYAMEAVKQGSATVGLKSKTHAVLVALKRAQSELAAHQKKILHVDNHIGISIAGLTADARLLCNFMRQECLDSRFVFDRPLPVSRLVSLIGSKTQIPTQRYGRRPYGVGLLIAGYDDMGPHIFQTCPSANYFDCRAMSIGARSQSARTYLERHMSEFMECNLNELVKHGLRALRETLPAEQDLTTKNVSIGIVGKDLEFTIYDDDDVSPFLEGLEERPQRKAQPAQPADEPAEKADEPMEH
human proteasome α4 subunit, sequence (O14818 whole entry): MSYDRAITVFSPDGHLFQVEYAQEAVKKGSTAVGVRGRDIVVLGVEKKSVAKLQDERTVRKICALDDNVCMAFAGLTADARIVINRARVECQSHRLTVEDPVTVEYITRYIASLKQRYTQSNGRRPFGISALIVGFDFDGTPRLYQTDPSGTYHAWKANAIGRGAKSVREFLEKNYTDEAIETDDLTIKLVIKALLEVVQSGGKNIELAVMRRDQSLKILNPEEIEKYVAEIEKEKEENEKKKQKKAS
human proteasome α7 subunit, wild type, sequence (P25788 whole entry): as the sequence (P25788 whole entry, canonical isoform) above
human proteasome α2 subunit, sequence (P25787 whole entry): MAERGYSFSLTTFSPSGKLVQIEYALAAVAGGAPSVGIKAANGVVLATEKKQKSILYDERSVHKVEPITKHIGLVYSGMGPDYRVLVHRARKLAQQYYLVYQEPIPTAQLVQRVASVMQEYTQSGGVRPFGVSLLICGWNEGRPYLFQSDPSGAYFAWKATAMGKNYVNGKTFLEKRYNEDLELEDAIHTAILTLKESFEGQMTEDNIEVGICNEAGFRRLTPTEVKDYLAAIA

stoichiometry N (α7^SR subunits per α2) [1]: 7
Substance: human proteasome α2 subunit (from UniProt P25787 1-234) (natural protein)

stoichiometry N [2]: 1.2 α7· per α4 | stoichiometry N (α7^SR subunits per α4) [1]: 7
Substance: human proteasome α4 subunit (from UniProt O14818 1-248) (natural protein)

stoichiometry N (α7 subunits per α6) [3]: 7 | stoichiometry N [4]: 2 | stoichiometry N (α7^SR subunits per α6) [1]: 7 | percent of the α7 tetradecamer disrupted into smaller complexes [5]: 50% | stoichiometry N (α7 subunits per α6) [6]: 14
Substance: human proteasome α6 subunit, short isoform (from UniProt P25786 1-263) (natural protein)

stoichiometry N [7]: 14
Substance: human proteasome α7 subunit, wild type (from UniProt P25788 1-255) (natural protein)

stoichiometry N [8]: 7 | stoichiometry N [9]: 7 | stoichiometry N [10]: 14
Substance: single-ring α7 mutant α7^SR (S96D, S100D, F102R, Y104R) (natural protein)
